Results reported in PMC6168351 (Molecular cancer therapeutics, 2018).

Biological target: Human GPA33 (Novoprotein), recombinant (Homo sapiens (Human)., UniProt Q99795)
Assay: SPR

Human GPA33 (Novoprotein), recombinant, sequence (Q99795 22-235): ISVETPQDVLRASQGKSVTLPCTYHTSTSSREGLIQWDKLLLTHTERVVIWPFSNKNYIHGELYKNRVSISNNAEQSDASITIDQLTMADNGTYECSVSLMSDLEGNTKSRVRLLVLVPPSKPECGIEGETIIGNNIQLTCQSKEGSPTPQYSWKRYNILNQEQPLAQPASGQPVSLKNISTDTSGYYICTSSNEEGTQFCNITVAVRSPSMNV

B1: huA33 (humanized A33 antibody, selected clone), IgG1 (antibody, V domains shown)
VH: EVQLVESGGGLVKPGGSLRLSCAASGFAFSTYDMSWVRQAPGKRLEWVATISSGGSYTYYLDSVKGRFTISRDNAKNSLYLQMNSLRAEDTAVYYCAPTTVVPFAYWGQGTLVTVSS
VL: DIQMTQSQSSLSTSVGDRVTITCKASQNVRTVVAWYQQKPGKSPKTLIYLASNRHTGVPSRFSGSGSGTEFTLTISNVQPEDFADYFCLQHWSYPLTFGSGTKLEIK
Kd: 0.13 nM
